Data taken from article PMC4351158 (Structure (London, England : 1993), 2015).
Substitutions are numbered along the chain they refer to. Where no end group is shown, it is not given here. fluorescein = fluorescein, a fluorescent label on the peptide N-terminus

Columns and labels:
Assay in all cases: fluorescence polarisation
[1] = biological target: T1, DegS H198P/I232A (E. coli, UniProt P0AEE3 27-355, H198P | I232A)
T1 sequence (looked up): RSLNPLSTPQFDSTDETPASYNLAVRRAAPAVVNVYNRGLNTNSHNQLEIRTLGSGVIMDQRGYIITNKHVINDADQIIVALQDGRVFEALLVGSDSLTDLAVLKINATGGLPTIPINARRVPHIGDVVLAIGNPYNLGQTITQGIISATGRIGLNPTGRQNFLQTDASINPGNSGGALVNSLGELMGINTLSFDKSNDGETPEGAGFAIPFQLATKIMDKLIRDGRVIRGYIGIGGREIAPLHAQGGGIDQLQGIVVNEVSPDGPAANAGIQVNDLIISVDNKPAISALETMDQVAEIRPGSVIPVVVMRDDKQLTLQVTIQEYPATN

[2] = biological target: T2, DegS I179A/H198P (E. coli, UniProt P0AEE3 27-355, I179A | H198P)
T2 sequence (looked up): T1 sequence (looked up) with I153A, A206I

[3] = biological target: T3, DegS H198P/F234A (E. coli, UniProt P0AEE3 27-355, H198P | F234A)
T3 sequence (looked up): T1 sequence (looked up) with A206I, F208A

[4] = biological target: T4, DegS H198P/E230A (E. coli, UniProt P0AEE3 27-355, H198P | E230A)
T4 sequence (looked up): T1 sequence (looked up) with E204A, A206I

[5] = biological target: T5, DegS R178A/H198P (E. coli, UniProt P0AEE3 27-355, R178A | H198P)
T5 sequence (looked up): T1 sequence (looked up) with R152A, A206I

fluorescein-DNRDGNVYYF [fluorescent OMP peptide fluorescein-DNRDGNVYYF]
Kd [1]: 2700 ± 300 nM | Kd [2]: 1600 ± 100 nM | Kd [3]: 2900 ± 100 nM | Kd [4]: 1800 ± 400 nM | Kd [5]: 4000 ± 100 nM
